System: PSA peptide M(GVGVP)60GDGQSSIYSQTEEQQDDEEG

Prostate Specific Antigen (PSA), active
optical density of 100 µM PSA peptide before and after 2 h with 20 ng/mL active PSA at 37 C: a distinct difference in the presence of active PSA, with an increase in optical density of the solution above the transition temperature after incubation with enzyme
